{
  "source": "paper PMC11655885",
  "about": "“Structural mechanism of CB1R binding to peripheral and biased inverse agonists” (Nature Communications, 2024)",
  "molecules": {"B1": {"name": "CNB36: nanobody selected from a yeast display library against the CB1R-5M-PGS fusion protein (antibody, V domains shown)", "VH": "QVQLQESGGGLVQAGGSLRLSCAASGTIFGPDVMGWYRQAPGKERELVAGISNGANTYYADSVKGRFTISRDNAKNTVYLQMNSLKPEDTAVYYCAAEVLDYTFAYLYHAYWGQGTQVTVSS"}},
  "key": {"[1]": {"biological_target": "CB1R-5M-PGS (Homo sapiens, UniProt P21554)", "sequence (P21554 with tags, fused parts or gaps)": "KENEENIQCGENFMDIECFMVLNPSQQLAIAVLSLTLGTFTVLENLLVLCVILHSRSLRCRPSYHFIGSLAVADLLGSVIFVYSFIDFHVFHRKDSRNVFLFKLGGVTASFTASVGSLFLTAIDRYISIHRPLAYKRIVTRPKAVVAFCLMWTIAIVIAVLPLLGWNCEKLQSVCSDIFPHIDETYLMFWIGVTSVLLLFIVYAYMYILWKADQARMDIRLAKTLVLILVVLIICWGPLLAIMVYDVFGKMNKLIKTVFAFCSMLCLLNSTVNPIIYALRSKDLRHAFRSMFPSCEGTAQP", "assay": "Analytical gel filtration test of CNB36 binding to CB1R-5M-PGS", "settings": "purified CNB36", "method": "For binding tests, 10 μM purified CNB36 was incubated for 1 hr with purified PGS or CB1R-5M-PGS (5 μM). The complex was then centrifuged at 21,130 × g for 15 min at 4 °C to remove large aggregates, and the supernatant was run on an analytical-grade Superdex 200 10/300 Increase column at 0.5 mL/min in CB1 gel filtration buffer. The presence or absence of binding of CNB36 to CB1R-5M-PGS or to PGS alone was assessed by SDS-PAGE analysis of peak fractions."}, "[2]": {"tested_on": "CB1R-5M-PGS over GPR55-PGS", "assay": "Analytical flow cytometry of yeast-displayed CNB36, CB1R-5M-PGS versus GPR55-PGS", "assay_type": "binding", "method": "Supplementary Figure 1. (A-H) Sel ecti on and bi ochemi cal characteri zati on of CNB36\n(A) Overall strategy for nanobody selection and sequence of CNB36.\n(B) FA C S sort of a yeast display nanobody library against Alexa647-labeled CB1-PGS […]\nround of selection that gave rise to CNB36. The indicated gat e (P5) contains the highly fluorescent CB1-PGS single posit ive populat ion, which was then analyzed by sequencing of individual clones.\n(C) Binding of CNB36 to CB1-PGS, read out by size exclusion chromatography and SDS-PA G E . […]\n(D) Assessment of binding of CNB36 to PGS alone, as in C.\n(E) Analytical flow cytometry comparing binding of CNB36-expressing yeast t o Alexa647-labeled CB1-PGS (Y-axis) versus FI TC-labeled GPR55-PGS (X-axis).\n(F) Final sample used for cryo-EM grid preparat ion by size excusion chromatography and […]"}},
  "data": [
    {"molecule": "B1", "values": [
      {"measurement": "complex formation with CB1R-5M-PGS by size exclusion chromatography", "setting": "[1]", "value": "formed a stable complex"},
      {"measurement": "specificity for purified CB1R-5M-PGS over GPR55-PGS by FACS", "setting": "[2]", "value": "high specificity"}
    ]}
  ]
}
